Data: patent publication CN117567617A

Molecular target: CLDN18.2 (species not stated)
Experiment: affinity measurement, method not described

IMAB362 (Zolbetuximab), positive control antibody
Kd: 4.17 nM
